In one series the target is T1, ceTIR-1 (Caenorhabditis elegans, UniProt Q86DA5).
T1 construct: gene tir-1; near-intact ARM-SAM-SAM-TIR, residues 162-872 (HMD...QQR), N-terminal 6xHis + TEV site, HEK293F expression, mostly 9-mer ring, partly dissociated
T1 sequence (Q86DA5 216-926): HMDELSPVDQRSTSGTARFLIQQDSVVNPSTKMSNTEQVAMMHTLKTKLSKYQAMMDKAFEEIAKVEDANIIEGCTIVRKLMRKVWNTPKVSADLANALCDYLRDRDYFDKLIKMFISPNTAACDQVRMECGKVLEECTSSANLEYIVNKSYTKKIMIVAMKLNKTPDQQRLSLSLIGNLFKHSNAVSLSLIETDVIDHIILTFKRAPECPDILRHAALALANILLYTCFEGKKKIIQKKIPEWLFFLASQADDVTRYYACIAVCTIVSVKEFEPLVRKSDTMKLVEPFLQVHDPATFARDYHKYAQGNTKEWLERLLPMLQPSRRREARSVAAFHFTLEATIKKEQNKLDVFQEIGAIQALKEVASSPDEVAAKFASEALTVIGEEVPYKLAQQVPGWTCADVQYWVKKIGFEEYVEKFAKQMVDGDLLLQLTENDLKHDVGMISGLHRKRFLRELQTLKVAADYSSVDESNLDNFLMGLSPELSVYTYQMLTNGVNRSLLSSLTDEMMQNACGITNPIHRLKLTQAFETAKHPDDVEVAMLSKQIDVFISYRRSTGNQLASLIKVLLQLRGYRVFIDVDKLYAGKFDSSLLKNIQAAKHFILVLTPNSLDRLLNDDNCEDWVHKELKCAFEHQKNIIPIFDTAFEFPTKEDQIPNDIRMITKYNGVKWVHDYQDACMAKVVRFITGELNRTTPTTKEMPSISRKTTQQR
The series can be described thus: HPLC NAD+ consumption, dose response. It is filed as biochemical. The source says: HPLC NAD+ consumption, dose response on ceTIR-1 | Nicotinamide (NAM) inhibits ceTIR-1 NADase activity

Series [1] deals with the molecule itself. Briefly: cross-linking; glutaraldehyde cross-linking of ceTIR-1^TIR and ceTIR-1^(TIR L729H).
Series [2] deals with the molecule itself. The series can be described thus: SEC; gel filtration of Ni-NTA purified hSARM1 and ceTIR-1, fractions read by anti-FLAG WB; Superdex 200 Increase 10/300, 25 mM phosphate pH 8.5, 120 mM NaCl, 2.5% glycerol, 1 mM DTT.
Series [3] concerns the molecule itself. Briefly: cryo-EM structure; purified CHIMERA supplemented with 5 mM NAD+; Titan Krios; 136,346 particles, C8 symmetry imposed.
The target in series [4] is T2, hSARM1 ARM and SAM domains (residues 26-562), the human part of CHIMERA (human, UniProt Q6SZW1 26-562).
T2 construct: human SARM1 ARM and SAM domains, residues 26-562 (26ERL...DTP562); Stood joined on one chain with m8 (together they are CHIMERA); written apart only for the contact of the human ARM with the C. elegans TIR in the structure; also called human ARM and SAM domains; source: HEK293F, transfected, purified, as part of the CHIMERA chain
T2 sequence (looked up): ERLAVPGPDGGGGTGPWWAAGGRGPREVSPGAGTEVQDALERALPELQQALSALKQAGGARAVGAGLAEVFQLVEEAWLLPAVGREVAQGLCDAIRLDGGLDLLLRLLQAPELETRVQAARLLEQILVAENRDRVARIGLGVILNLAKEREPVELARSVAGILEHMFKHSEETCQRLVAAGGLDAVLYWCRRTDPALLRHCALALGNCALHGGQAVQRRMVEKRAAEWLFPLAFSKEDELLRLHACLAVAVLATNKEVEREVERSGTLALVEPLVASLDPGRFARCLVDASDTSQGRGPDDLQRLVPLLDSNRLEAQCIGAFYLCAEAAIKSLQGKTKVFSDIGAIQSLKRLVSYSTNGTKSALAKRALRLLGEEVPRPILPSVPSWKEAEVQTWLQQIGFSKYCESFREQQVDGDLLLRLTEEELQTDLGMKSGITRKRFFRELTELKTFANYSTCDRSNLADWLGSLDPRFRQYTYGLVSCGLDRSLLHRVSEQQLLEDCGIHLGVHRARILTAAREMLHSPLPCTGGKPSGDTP
The description is as above. The following applies: both partners purified.

Substrate in series [5]: NC(=O)c1ccc[n+]([C@@H]2O[C@H](COP(=O)(O)OP(=O)(O)OC[C@H]3O[C@@H](n4cnc5c(N)ncnc54)[C@H](O)[C@@H]3O)[C@@H](O)[C@H]2O)c1
Briefly: HPLC NAD+ consumption, Michaelis-Menten fit. It is filed as biochemical, Caenorhabditis elegans. The settings on record: […] min, […] enzyme, pH […], unit appears as mM, a character error for µM (b50 gives about […] for hSARM1 and […] higher for ceTIR-1).

Consider `NC(=O)c1cccnc1` [NAM], for which, on ceTIR-1, it took 910 µM to reach half-maximal inhibition (IC50).

B1: ceTIR-1^TIR (residues 703-872) (domain or fragment, C. elegans, UniProt Q86DA5-2 703-872, looked up)
chain: MLSKQIDVFISYRRSTGNQLASLIKVLLQLRGYRVFIDVDKLYAGKFDSSLLKNIQAAKHFILVLTPNSLDRLLNDDNCEDWVHKELKCAFEHQKNIIPIFDTAFEFPTKEDQIPNDIRMITKYNGVKWVHDYQDACMAKVVRFITGELNRTTPTTKEMPSISRKTTQQR
notes: ceTIR-1 TIR domain, residues 703-872 (703MLS...QQR872); Dimeric by glutaraldehyde cross-linking; also called isolated TIR domain of ceTIR-1; source: E. coli T7 Express, purified (HisTrap, TEV, second HisTrap, Superdex SEC); not shown: His tag, N-terminal, cleaved
Take B1: the “stoichiometry N” value in series [1] worked out at 2.

B2: hSARM1 (near-intact, residues 26-724) (enzyme, human, UniProt Q6SZW1 26-724, looked up)
chain: ERLAVPGPDGGGGTGPWWAAGGRGPREVSPGAGTEVQDALERALPELQQALSALKQAGGARAVGAGLAEVFQLVEEAWLLPAVGREVAQGLCDAIRLDGGLDLLLRLLQAPELETRVQAARLLEQILVAENRDRVARIGLGVILNLAKEREPVELARSVAGILEHMFKHSEETCQRLVAAGGLDAVLYWCRRTDPALLRHCALALGNCALHGGQAVQRRMVEKRAAEWLFPLAFSKEDELLRLHACLAVAVLATNKEVEREVERSGTLALVEPLVASLDPGRFARCLVDASDTSQGRGPDDLQRLVPLLDSNRLEAQCIGAFYLCAEAAIKSLQGKTKVFSDIGAIQSLKRLVSYSTNGTKSALAKRALRLLGEEVPRPILPSVPSWKEAEVQTWLQQIGFSKYCESFREQQVDGDLLLRLTEEELQTDLGMKSGITRKRFFRELTELKTFANYSTCDRSNLADWLGSLDPRFRQYTYGLVSCGLDRSLLHRVSEQQLLEDCGIHLGVHRARILTAAREMLHSPLPCTGGKPSGDTPDVFISYRRNSGSQLASLLKVHLQLHGFSVFIDVEKLEAGKFEDKLIQSVMGARNFVLVLSPGALDKCMQDHDCKDWVHKEIVTALSCGKNIVPIIDGFEWPEPQVLPEDMQAVLTFNGIKWSHEYQEATIEKIIRFLQGRSSRDSSAGSDTSLEGAAPMGPT
notes: human SARM1 (sterile alpha and TIR motif containing 1), residues 26-724 (26ERL...GPT724); A TEV site follows the His tag; no cleavage is described; also called human SARM1; source: HEK293F, transfected, purified (Ni-chelate, Superdex 200 Increase SEC)
With B2, the binding result in series [2] is given as “binds”.

B3: CHIMERA (hSARM1 26-562 fused to ceTIR-1 709-872) (enzyme, human | C. elegans, UniProt Q6SZW1 26-562, looked up)
chain: ERLAVPGPDGGGGTGPWWAAGGRGPREVSPGAGTEVQDALERALPELQQALSALKQAGGARAVGAGLAEVFQLVEEAWLLPAVGREVAQGLCDAIRLDGGLDLLLRLLQAPELETRVQAARLLEQILVAENRDRVARIGLGVILNLAKEREPVELARSVAGILEHMFKHSEETCQRLVAAGGLDAVLYWCRRTDPALLRHCALALGNCALHGGQAVQRRMVEKRAAEWLFPLAFSKEDELLRLHACLAVAVLATNKEVEREVERSGTLALVEPLVASLDPGRFARCLVDASDTSQGRGPDDLQRLVPLLDSNRLEAQCIGAFYLCAEAAIKSLQGKTKVFSDIGAIQSLKRLVSYSTNGTKSALAKRALRLLGEEVPRPILPSVPSWKEAEVQTWLQQIGFSKYCESFREQQVDGDLLLRLTEEELQTDLGMKSGITRKRFFRELTELKTFANYSTCDRSNLADWLGSLDPRFRQYTYGLVSCGLDRSLLHRVSEQQLLEDCGIHLGVHRARILTAAREMLHSPLPCTGGKPSGDTPDVFISYRRSTGNQLASLIKVLLQLRGYRVFIDVDKLYAGKFDSSLLKNIQAAKHFILVLTPNSLDRLLNDDNCEDWVHKELKCAFEHQKNIIPIFDTAFEFPTKEDQIPNDIRMITKYNGVKWVHDYQDACMAKVVRFITGELNRTTPTTKEMPSISRKTTQQR
notes: human SARM1 ARM and SAM domains, residues 26-562 (26ERL...DTP562); ceTIR-1 TIR domain, residues 709-872 (709DVF...QQR872); Octamer by cryo-EM, sample supplemented with 5 mM NAD+; also called hARM-SAM-ceTIR CHIMERA; Chimera construct; source: HEK293F, transfected, purified (Ni-chelate, Superdex 200 Increase SEC)
Regarding B3, in series [3], the “stoichiometry N” value is 8.

B4: ceTIR-1 TIR domain (residues 709-872), the C. elegans part of CHIMERA (domain or fragment, UniProt Q86DA5-2 709-872, looked up)
chain: DVFISYRRSTGNQLASLIKVLLQLRGYRVFIDVDKLYAGKFDSSLLKNIQAAKHFILVLTPNSLDRLLNDDNCEDWVHKELKCAFEHQKNIIPIFDTAFEFPTKEDQIPNDIRMITKYNGVKWVHDYQDACMAKVVRFITGELNRTTPTTKEMPSISRKTTQQR
notes: ceTIR-1 TIR domain, residues 709-872 (709DVF...QQR872); Stood joined on one chain with m7 (together they are CHIMERA); also called C. elegans TIR; source: HEK293F, transfected, purified, as part of the CHIMERA chain
B4: the binding result in series [4] was “binds”.

B5: ceTIR-1 (Caenorhabditis elegans) (protein)
chain: HMDELSPVDQRSTSGTARFLIQQDSVVNPSTKMSNTEQVAMMHTLKTKLSKYQAMMDKAFEEIAKVEDANIIEGCTIVRKLMRKVWNTPKVSADLANALCDYLRDRDYFDKLIKMFISPNTAACDQVRMECGKVLEECTSSANLEYIVNKSYTKKIMIVAMKLNKTPDQQRLSLSLIGNLFKHSNAVSLSLIETDVIDHIILTFKRAPECPDILRHAALALANILLYTCFEGKKKIIQKKIPEWLFFLASQADDVTRYYACIAVCTIVSVKEFEPLVRKSDTMKLVEPFLQVHDPATFARDYHKYAQGNTKEWLERLLPMLQPSRRREARSVAAFHFTLEATIKKEQNKLDVFQEIGAIQALKEVASSPDEVAAKFASEALTVIGEEVPYKLAQQVPGWTCADVQYWVKKIGFEEYVEKFAKQMVDGDLLLQLTENDLKHDVGMISGLHRKRFLRELQTLKVAADYSSVDESNLDNFLMGLSPELSVYTYQMLTNGVNRSLLSSLTDEMMQNACGITNPIHRLKLTQAFETAKHPDDVEVAMLSKQIDVFISYRRSTGNQLASLIKVLLQLRGYRVFIDVDKLYAGKFDSSLLKNIQAAKHFILVLTPNSLDRLLNDDNCEDWVHKELKCAFEHQKNIIPIFDTAFEFPTKEDQIPNDIRMITKYNGVKWVHDYQDACMAKVVRFITGELNRTTPTTKEMPSISRKTTQQR
notes: near-intact ARM-SAM-SAM-TIR, residues 162-872 (HMD...QQR), N-terminal 6xHis + TEV site, HEK293F expression, mostly 9-mer ring, partly dissociated
Take B5: the Km in series [5] stood at 0.25 mM.

Broadly, the IC50 is the concentration needed to halve the response being measured. As usually defined, the stoichiometry N is a count of units in the complex or per binding partner. For orientation: Km means the concentration of substrate that gives half-maximal velocity.
